The nanobody polyreactivity screen of Harvey et al. (2022)

Assay: yeast display, Sf9 membrane polyspecificity reagent, FACS + sequencing; frameworks hold sequencing errors
In short: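 Synthetic nanobody libraries on Saccharomyces cerevisiae BJ5465 were galactose-induced for 36–48 hours, stained 1 hour at 4 °C with 10% biotinylated, detergent-solubilized Sf9 membrane reagent and enriched on streptavidin microbeads. FACS then separated cells into low and high (top ~1%) gates by anti-HA (expression) and streptavidin (reagent binding) fluorescence. Genes were colony-PCR amplified, MiSeq 2 × 250 sequenced and CDR-length filtered. A clone's polyreactivity label is that of its gate of origin.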

Sequence | polyreactivity (PSR sort gate)
QVPLVKSGAGFVQAGGILRLSCAASGRIFPFYVNGLARQAAGQERELVATINWSGGSTYYADSVKGRFTISRDNAKNTVYLQMNSLKPADTAVYYCAAAGIGGGGWGQGTQVTVSS | low polyreactivity
QVKLVESGGGLVQAGGSLRLSCAASGFTFEEYAMGCYRQSPGKERELVAAISASGGRTYYADSVKRRFTISRDNAKNTVYLQMNSLKPEDTAVYYCAAGYRGRRIMDYWGQGTQVTVSS | high polyreactivity
QVQLVESGGGLVQAGGSLRLSCAASGSTFRDNAMGWYRQAPGKEWELVAAITVIDGTTYYADSVKGRFTLSRDNAKNTVYLQMNSLKPEDTAVYYCAADTIWYEYYYWGQGTQVTVSS | low polyreactivity
QVQLVESGGGLVQAGGSLRLSCAASGIIFSEYAMGWNRKAPGKERELVAAISKSGGRTYYADSVKGRFTISRDNAKNTVYLQMNSLKPEDTAVYYCAARHAPILGDHGMKYWGQGTQVTVSS | high polyreactivity
QLQLVESGGGLVQAGGSLRLTCAASGIIFAYNARGWYRQAPGKERELVATITDSRGSTSYADSVKGRFTISRDNAKNTVYLQMNSLKPEDTAVYYCAVLPVYWYWRNYVYLSGYDYWGQGTQVTVSS | low polyreactivity
QVQLVESGGGLVQAGGSLRLSCAASGRIFGPYTMGWYRPAPGKERELVARISRRGGSTYYADSVKGRFTISRDNAKNTVYLQMNSLKPEDTAVYYCAAWFTSTRPYDYWGQGTQVTVSS | high polyreactivity
QFQLVESAVVLVQAGGSLRLSCAASGGIFGSYAMGWYRQAPGKEMEFVAAIRYGSGSQYYADSVKGRFTISRDNAKNTVYLQMNSLKPEDTAVYYCATEYWGVYGYGFIYDYWGQGTQVTVSS | low polyreactivity
QVQLVESGGGLVQAGGSLRLSCAASGSTFYSYAMGWYRQAPGKERELVAAITSGGSTNYADSVKGRFTISRDNAKNTVYLQMNRLKPEDTAVYYCARKYWHRSYGYDYWGQGTQVTVSS | low polyreactivity
QVQLVESGGGLVQAGGSLSLTCAASGITFYLYAMGWDIQAPGKERELVAAISSGSRTTYADSVKGRFTISRDNEKNTVYLQMNSLKPEDTAFYYCAAAYWNWGYYYSYDYWGQGTQVTVSS | high polyreactivity
QVQHVESGGGLVQAGGSLRLSCAASGFIFRYYTMGLYRQAPGKERELVATISNSGRTYYADSVKGRFTISRDNAKNTVYLQMNSLKPEDTAVYYCNALRASTTALWGGYWGQGTQVTVSS | high polyreactivity
QVQLVESGGRLVQAGGSLRLSCAASGLIFAPYAMGWYRQAPGKEWELVAAISSSGTSTYYADSVKGRFTISRDNAKNTVYLQMNSLKPEDTAVYYCAAVYWTFWGTIATRYDYWGQGTQVTVSS | high polyreactivity
QVQLVETGGGLVQAGGSLRLSCADSGRIFRYNAMGWYRHAHGKERELVAAITLSTGSTYYADSVKGRFTISRDNAKNTVYLQMNSLKPEDTAVYYCAARIDGRTYARRVYYWGQGTQVTLSS | high polyreactivity
QVQLVESGGGLVQAGGSLRLSCAATGSIFQSYAMGWYRQAPGKERELVAAITARGTSTYYADSVKGRFTISRDNAKNTVYLQMNSLKPEETAVYYCNTDRSRSPGDVESPSDIKRDYWGQGTQVTVSS | low polyreactivity
QVQLVESGGGLVQAGGSLRLSCAASGRIFSLNAMGWYRQAPGKERELVAGIRKRGGSTYYADSVKGRFTISRDNAKNTVYLQMNSLKPEDTAVYYCAADRFAFYGRYRGPYYYWGHGTQVTVSS | high polyreactivity
QVQLVESGGGLVQAGGSLRLSSAASGITFYINAMGWYRPAPGKERELVAALSWPRGSTYYADSVKGRFTISRDNAKNTVYLQMNSLKPEDTAVYYCAGVAYFELSGGGLEYGYDYWGQGTQVSVSS | high polyreactivity
QVQLVESGGGLVQAGGSLRLSCAASGGTIGWYAMGWYRQAPGKERELVAAITSSGGTTFYADSVKGRFTISRDNAKNTVYLQMNSLKPEDTAVYYCAKRGKRPTRYKLGKYDYWGQGTQVTVSS | high polyreactivity
QVQLVESGGGLVQAGGSLRLSCAASGSTFTSNAMGWYRQAPGKERELVASISGSGGRTYYADSVKGRFTISRDNAKNTVYLQMNSLKPEDTAVYYCNAESRNLYSTQFDYLGQGTQVTVSS | low polyreactivity
QVQLVESGGGLVQAGGSLRLSCAASGFTFYRNPMGWYRQAPGKERELVAAISARGVSTYYADSVKGRFTISRDNAKNTVYLQMNSLKPEDTAVYYFSAVNYIYTGGGTYYYWGQGTQVTVSS | high polyreactivity
QVQLVESGGGLVQAGGSLRLSCAASGIIFWYNTMGWYRQAPGKERELVAAITYGGGSTYYADSVKGRFTISRDNAKNSVYLQMNSLKPEDTAVYYCAVRNWHLIKYLHGYSRYGYWGQGTQVTVSS | low polyreactivity
QVQLVESGGGLVQAGGSLRLSCAASGFIFRYNAMGWYIQAPGKERELVASIDWSGGSTYYADSVKGGFTISRDNAKITVYLQMNSLKPEDTEVYYCAADTSYWYDYYIDYVGYYYWGQGTQVTVSS | high polyreactivity
QLQLVQSGGGLVQAGGSLRLSCAASGRIFFKYVKGWYRQAPGKERELVAAISSAGSTYYADSVKRRFTISRDNAKNTVYLQMNSLQPEDTAVYYCATYYSAINYGWSKTILYDYWGQGTQVTVSS | low polyreactivity
QVQLVESGGGLVQAGGSLRLSCAASGRILYYYTMGWYRQAPGKEREFVAAISSRGGSTYADSVKGRFTISRDNAKNTVYLQMNSLKPEDTAVFYCNARLKPRWGGRYDYWGQGTQVTVSS | high polyreactivity

Sequence | polyreactivity (PSR sort gate)
QVQLVESGGGLVQAGGSLRLSCAASGRTFVRNAMGWYRQAPGKERELVASITSGGSTYYADSVKGRFTISRDNAKNTVYLQMNSLKAEDTAVYYCAKRTYTPVYGYYYWGQGTQVTVSS | high polyreactivity
QVQLVESGGGLVQAGGSLRLSCAASGIILYYNAMGWYRQAPGKERALVAAITTSGVSTYYADSVKGRFTISRDNAKNTVYLQMNSLKPEDTAVYYCNADYLYGRYTYDYWGQGTQVTVSS | low polyreactivity
QVQLVESAGGLVQAGGSLRLSCAASASIFYVYSMGWSRQAPGKEREFVAAISWRGGSTYYADSVKGRFTISRDNAKNTVYLQMISLKPEDTAVFYCNGRRLGYRSGHPGYYWGQGTQVTVSS | high polyreactivity
QVQLVESGGGLVQAGGSLRLSCAASGSTFAYNAMGWYRQAPGNERELVAAISFTGDSTYYADSVKGRFTISRDNAKNTVYLQMNSLKPEDTRTSPVLSYDYWGQGTLVTVSS | low polyreactivity
QVQLVESGGGLVQAGGSLRLSCAASGRTSQEYAMGWYRQAPGKERELVAGITRRGGTTYYADSVKGRFTISRDNAKNTVYLQMNRLNPEDTAVYYCAKRYTHSFKYEYWGQCTQVTVSS | high polyreactivity
QVQLVESGGGLVQAGGSLRLSCAASGRIFNYYAMGSYRQAPGKERDLVAAITSRGGSTYYADSVKGRFTISRDNAKNTVYLQMNSLNPEDTAVYYCNTRVWYPGTIHPVDYWGQGTQVTVSS | low polyreactivity
QVQLVESGGGLVQAGGSLRLSCAASGSTLRSYTMGWYRQAPGKERELVAAITTTGRTYYADSVKGRFTISRDNAKNTVYLQMNSLKPEDTAVYYCNAVAPGKYNHWGQGTQVTVSS | high polyreactivity
QVQLVESGGGLVQAGGSLRLSCAASGSIFRRYVMGWYRQAPGKERELVASISSNGTSTYYADSVKGRFTISRDNSKNTVYLQMNSLKPEDTAVYYCNVDIFDPRTYDYWGQGTQVTVSS | low polyreactivity
QDQLVESGGGLVQAGGSLRLSCAASGLIFTGNVMGWYRQEPGKERELVAAISRSGGRTYYADSVKGRFTISRDNAKNTVYLQMNSLKREDTAVYYCNKVSPERVYYGSYFRYYYWGQGTQVTVSS | high polyreactivity
QVQLVESGGGLVQAGGSLRLICAASGRTFSTYAMGWYRQAPGKERELVAAISSGGGRTYYADSVKGRFTISRDNAKNTVYLQMNSLKPEDTAVYYCAADRYVRSRRSYEYWGQGTQVTVSS | low polyreactivity
QVQLVESGVGLVQAGGSLRLSCAASGRTFEPNAMGWYRHAPGKERELVAGITWSGGSTYYADSVKGRFTISRDNAKNTVYLQMNSLKPEDTAVYYCNAPITWKRSHYGYWGQGTQVTVSS | low polyreactivity
QVQLVESGGGLVQAGGSLRLSCDASGRIFVYYAMGWYRQAPGKERELVAAINSGGTTKYADSVKGRFTISRDNAKNTVYLQMNSLKPEDTAVYYCAAEPLTPSRDRVPYEYYYWGQGTQVTVSS | high polyreactivity
QVQLVESGGGLVQAGGSLRLSCAASGFIFKAYAMGWYRHAPGKERELVAAITSSGGRTYDADSVKGRFTISRDNAKNTVYLQKNSLKPEDTAVYYCNARGVLRTSLYRYDYWGQGTQVTVSS | high polyreactivity
QVQLVDSGGGLVQAGGSLRVSCAASGRIFSGHAMGWYRQAPGKVRELVAAITSGGDDTYYADSVKGRFTISRDNAKNTVYLQMNSLKPEDTAVYYCAARYLGYTYYYWGQGTQVSVSS | low polyreactivity
QDQLVESGGGLVQAGGSLRLSCAASGSTFVYYAMGWYRQAPGKERELVAAISRTGNTYYADSVKGRFTISRDNAKNTVYLQMNSLKPEDSAVYYCAKDYWRAYGSYEYWGQGTQVTVSS | low polyreactivity
QFQLVESGGGLVQAGGSLRLSCAASGRIFGPYAMGWYRQAPGKERELVASISGGGSTNYADSVKGRFTISRDNAKNTVYLQMNSLKPEDTAVYYCAADVYYQYWGWWPYDYWGQGTQVTESS | low polyreactivity
QVQLVESGGGLVQAGGSLRLSCAASGSTFWANAMGWYRPAPGKERELLAGITWNAGSTYYADSVKGRYTISRDNAKNNVYLQLNSLKPEDTAVYYCAAYYHFQGWGPGYNSCGQGTQVTVSS | low polyreactivity
QVQLVESRGGLVQAGGSLRLSCAASGITFPRYAMGWYRPAPGKERELVARITSGGRTNYADSVKGRFTISRDNAKNTVYLQMNSLKPEDTAFYYCNAVAQSGRYDYWGQGTQVTVSS | high polyreactivity
QVQLVESGGGLVQAGGSLPLSCAASGRTFDSYTMGWYRQAPGKERELVAAIRSSGGRTYADSVKGRFTISRDNAKNTVYLQMNSLKPEDTAVYYCAAARSYWAKYYYWGQGTQVTVSS | high polyreactivity
QVQVVDSGGGLVQAGGSLLLSCAASGSILGFNAMGWYRQSPGKEMELVASISSSGDSTYYADSEKGRFTISRDNAKNTVYLQMNSLKPEDTAVYYCATEGRTDYNREMEYWGQGSQVTVSS | low polyreactivity
QFQIVESGGGLVQAGGSLRLSCAASGGTFVSYAMGWYRQAPGKERELVAAITYSGGSTYYADSVKGRFTISRDNAKNTVYLQMNSLKPEDTAVYYCAAAKFSYFSYCPRGKVKYEYWGQGTQVTVSS | low polyreactivity
